Assay results: patent US20240066131A1 (Protagonist Therapeutics, Inc., priority 2020, published 2024)
Positions of bridges follow the written chain, without caps; N, C: chain ends. Non-standard residues stand in square brackets, D forms with d. Residues, ends and D or L forms follow the SMILES beside them. Groups on a side chain read outwards from the residue. *: point of attachment. PEG12 = NCCOCCOCCOCCOCCOCCOCCOCCOCCOCCOCCOCCOCCC(=O)O; C18 diacid = O=C(O)CCCCCCCCCCCCCCCCC(=O)*; Dip = N[C@H](C(=O)O)C(c1ccccc1)c1ccccc1; Palmitoyl = CCCCCCCCCCCCCCCC(=O)*; β3hF = N[C@H](CC(=O)O)Cc1ccccc1; NMeL = CN[C@@H](CC(C)C)C(=O)O; Isovaleryl = CC(C)CC(=O)*; Octanoyl = CCCCCCCC(=O)*; Abu = CC[C@H](N)C(=O)O; AEEA = NCCOCCOCC(=O)O; NHBn = c1ccc(CN*)cc1; Ahx = NCCCCCC(=O)O; βAla = NCCC(=O)O

T1: ferroportin endogenously expressed on T47D cells (HTB 133, ATCC) (human, UniProt Q9NP59 1-571)
T1 sequence (looked up): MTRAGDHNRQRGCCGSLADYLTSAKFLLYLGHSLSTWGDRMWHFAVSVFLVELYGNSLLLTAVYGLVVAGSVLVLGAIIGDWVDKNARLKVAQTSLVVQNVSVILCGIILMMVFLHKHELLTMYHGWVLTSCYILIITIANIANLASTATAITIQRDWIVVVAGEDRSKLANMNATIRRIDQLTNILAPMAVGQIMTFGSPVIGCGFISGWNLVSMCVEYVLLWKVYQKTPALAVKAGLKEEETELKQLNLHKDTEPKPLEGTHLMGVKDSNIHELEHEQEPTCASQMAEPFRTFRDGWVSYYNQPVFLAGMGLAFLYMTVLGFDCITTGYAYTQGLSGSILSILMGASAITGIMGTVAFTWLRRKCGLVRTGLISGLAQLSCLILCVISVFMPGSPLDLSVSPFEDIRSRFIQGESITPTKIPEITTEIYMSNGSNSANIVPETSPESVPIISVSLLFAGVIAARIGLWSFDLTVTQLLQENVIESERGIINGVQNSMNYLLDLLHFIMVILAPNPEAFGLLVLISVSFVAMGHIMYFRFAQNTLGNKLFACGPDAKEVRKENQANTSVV

T2: ferroportin (Homo sapiens, UniProt Q9NP59)
T2 sequence (Q9NP59 1-571): T1 sequence (looked up)

B1: Isovaleric Acid-E-T-H-[Dpa]-P-A-I-K-[bhPhe]-[Lys(Ahx_Palm)]-NH2 (peptide)
peptide: Isovaleryl-ETH[Dip]PAIK[β3hF]K([Ahx-Palmitoyl])-NH2
modifications: lactam 1-8
B2: Isovaleric Acid-E-T-H-[Dpa]-P-A-I-K-[Lys(Ahx_Palm)]-NH2 (peptide)
peptide: Isovaleryl-ETH[Dip]PAIKK([Ahx-Palmitoyl])-NH2
modifications: lactam 1-8 (inferred)
B3: Isovaleric Acid-K-T-H-[Dpa]-P-A-I-E-[bhPhe]-[Lys(Ahx_Palm)]-NH2 (peptide)
peptide: Isovaleryl-KTH[Dip]PAIE[β3hF]K([Ahx-Palmitoyl])-NH2
modifications: lactam 1-8
SMILES: CCCCCCCCCCCCCCCC(=O)NCCCCCC(=O)NCCCC[C@H](NC(=O)C[C@H](Cc1ccccc1)NC(=O)[C@@H]1CCC(=O)NCCCC[C@H](NC(=O)CC(C)C)C(=O)N[C@@H]([C@@H](C)O)C(=O)N[C@@H](Cc2c[nH]cn2)C(=O)N[C@@H](C(c2ccccc2)c2ccccc2)C(=O)N2CCC[C@H]2C(=O)N[C@@H](C)C(=O)N[C@@H]([C@@H](C)CC)C(=O)N1)C(N)=O
B4: Isovaleric Acid-E-T-H-[Dpa]-P-[Lys(bAla_Palm-N_Butyl_Phe (peptide)
peptide: XETHXPXX
modifications: N-term Isovaleric Acid; Dpa4; Lys(bAla_Palm)6; C-term N_Butyl_Phe
B5: Isovaleric Acid-E-T-H-[Dpa]-P-K-[Lys(Ahx_Palm)]-NH2 (peptide)
peptide: Isovaleryl-ETH[Dip]PKK([Ahx-Palmitoyl])-NH2
modifications: lactam 1-6 (inferred)
B6: Isovaleric Acid-Dab-T-H-[Dpa]-P-A-I-E-[bhPhe]-[Lys(Ahx_Palm)]-R-NH2 (peptide)
peptide: XXTHXPAIEXXR
modifications: N-term Isovaleric Acid; Dab1; Dpa4; bhPhe9; Lys(Ahx_Palm)10; C-term NH2; cyclized Dab-E (lactam)
B7: Isovaleric Acid-E-T-H-[Dpa]-P-[Lys(Ahx_Palm)]-N_Propyl_Phe (peptide)
peptide: XETHXPXX
modifications: N-term Isovaleric Acid; Dpa4; Lys(Ahx_Palm)6; C-term N_Propyl_Phe
B8: Isovaleric Acid-E-T-H-[Dpa]-P-[Lys(IsoGlu_Palm-N_Butyl_Phe (peptide)
peptide: XETHXPXX
modifications: N-term Isovaleric Acid; Dpa4; Lys(IsoGlu_Palm)6; C-term N_Butyl_Phe
B9: Cyclohexanoic_Acid-E-T-H-[Dpa]-P-[Lys(Ahx_Palm)]-N_Butyl_Phe (peptide)
peptide: XETHXPXX
modifications: N-term Cyclohexanoic_Acid; Dpa4; Lys(Ahx_Palm)6; C-term N_Butyl_Phe
B10: Isovaleric Acid-K-T-H-[Dpa]-P-A-I-E-[Lys(Ahx_Palm)]-NH2 (peptide)
peptide: Isovaleryl-KTH[Dip]PAIEK([Ahx-Palmitoyl])-NH2
modifications: lactam 1-8
SMILES: CCCCCCCCCCCCCCCC(=O)NCCCCCC(=O)NCCCC[C@H](NC(=O)[C@@H]1CCC(=O)NCCCC[C@H](NC(=O)CC(C)C)C(=O)N[C@@H]([C@@H](C)O)C(=O)N[C@@H](Cc2c[nH]cn2)C(=O)N[C@@H](C(c2ccccc2)c2ccccc2)C(=O)N2CCC[C@H]2C(=O)N[C@@H](C)C(=O)N[C@@H]([C@@H](C)CC)C(=O)N1)C(N)=O
B11: Isovaleric Acid-Orn-T-H-[Dpa]-P-A-I-E-[bhPhe]-[Lys(Ahx_Palm)]-R-NH2 (peptide)
peptide: XXTHXPAIEXXR
modifications: N-term Isovaleric Acid; Orn1; Dpa4; bhPhe9; Lys(Ahx_Palm)10; C-term NH2; cyclized Orn-E (lactam)
B12: Isovaleric Acid-E-T-H-[Dpa]-P-[Lys(Ahx_Palm)]-N_Ethyl_Nap (peptide)
peptide: XETHXPXX
modifications: N-term Isovaleric Acid; Dpa4; Lys(Ahx_Palm)6; C-term N_Ethyl_Nap
B13: Isovaleric Acid-E-T-H-[Dpa]-P-I-K-[bhPhe]-[Lys(Ahx_Palm)]-NH2 (peptide)
peptide: Isovaleryl-ETH[Dip]PIK[β3hF]K([Ahx-Palmitoyl])-NH2
modifications: lactam 1-7 (inferred)
B14: Isovaleric Acid-E-T-H-[Dpa]-P-K-[bhPhe]-[Lys(Ahx_Palm)]-NH2 (peptide)
peptide: XETHXPKXX
modifications: N-term Isovaleric Acid; Dpa4; bhPhe7; Lys(Ahx_Palm)8; C-term NH2; cyclized E-K (lactam)
B15: Isovaleric Acid-E-T-H-[Dpa]-P-[Lys(Ahx_Palm)]-N_Pentyl_Phe (peptide)
peptide: XETHXPXX
modifications: N-term Isovaleric Acid; Dpa4; Lys(Ahx_Palm)6; C-term N_Pentyl_Phe
B16: Isovaleric Acid-E-T-H-[Dpa]-P-A-I-[Lys(1Peg2_1Peg2_Ahx_C18_Diacid)]-[bhPhe]-NH2 (peptide)
peptide: Isovaleryl-ETH[Dip]PAIK([AEEA-AEEA-Ahx-C18 diacid])[β3hF]-NH2
SMILES: CC[C@H](C)[C@H](NC(=O)[C@H](C)NC(=O)[C@@H]1CCCN1C(=O)[C@@H](NC(=O)[C@H](Cc1c[nH]cn1)NC(=O)[C@@H](NC(=O)[C@H](CCC(=O)O)NC(=O)CC(C)C)[C@@H](C)O)C(c1ccccc1)c1ccccc1)C(=O)N[C@@H](CCCCNC(=O)COCCOCCNC(=O)COCCOCCNC(=O)CCCCCNC(=O)CCCCCCCCCCCCCCCCC(=O)O)C(=O)N[C@H](CC(N)=O)Cc1ccccc1
B17: Isovaleric Acid-K-T-H-[Dpa]-P-I-E-[bhPhe]-[Lys(Ahx_Palm)]-NH2 (peptide)
peptide: Isovaleryl-KTH[Dip]PIE[β3hF]K([Ahx-Palmitoyl])-NH2
modifications: lactam 1-7
SMILES: CCCCCCCCCCCCCCCC(=O)NCCCCCC(=O)NCCCC[C@H](NC(=O)C[C@H](Cc1ccccc1)NC(=O)[C@@H]1CCC(=O)NCCCC[C@H](NC(=O)CC(C)C)C(=O)N[C@@H]([C@@H](C)O)C(=O)N[C@@H](Cc2c[nH]cn2)C(=O)N[C@@H](C(c2ccccc2)c2ccccc2)C(=O)N2CCC[C@H]2C(=O)N[C@@H]([C@@H](C)CC)C(=O)N1)C(N)=O
B18: Butyric_Acid-E-T-H-[Dpa]-P-[Lys(Ahx_Palm)]-N_Butyl_Phe (peptide)
peptide: XETHXPXX
modifications: N-term Butyric_Acid; Dpa4; Lys(Ahx_Palm)6; C-term N_Butyl_Phe
B19: Isovaleric Acid-E-T-H-[Dpa]-P-A-I-[123 Triazole]-[bhPhe]-[Lys(Ahx_Palm)]-[(D)Lys]-NH2 (peptide)
peptide: XETHXPAIXXXX
modifications: N-term Isovaleric Acid; Dpa4; 123 Triazole8; bhPhe9; Lys(Ahx_Palm)10; (D)Lys11; C-term NH2; cyclized A-123Triazole (side-chain C of alanine and C5 of triazole joined by a C-C bond)
B20: Isovaleric Acid-E-T-H-[Dpa]-P-Abu-I-[Lys(PEG12_C18_Diacid)]-[bhPhe]-[(D)Lys]-[Cys]-NH2 (peptide)
peptide: Isovaleryl-ETH[Dip]P[Abu]IK([PEG12-C18 diacid])[β3hF][dK]C-NH2
modifications: thioether 6-11

Each molecule was assayed against T1, ferroportin endogenously expressed on … (assay: cell-based or functional assay). Settings: not given.

Molecule | T47D MSA IC50 [nM]
B1 | 2.14
B2 | 10.6
B3 | 3.53
B4 | 46.1
B5 | 144
B6 | 5.53
B7 | 15.3
B8 | 179
B9 | 54.3
B10 | 31.2
B11 | 5.77
B12 | 24.4
B13 | 25.5
B14 | 52.3
B15 | 12.7
B16 | 143
B17 | 996
B18 | 10.1
B19 | 10.8
B20 | 388

These molecules were tested against T2, ferroportin (assay: FPN activity assay: internalization/degradation of ferroportin-GFP in stably transfected HEK293 cells (loss of GFP fluorescence)). Settings: Table 6A; read-out: FPN EC50.
Assay type: cell-based
Experimental: Following internalization, the ferroporin protein is degraded.
A retro inverse peptide is a peptide with a reversed sequence in all D amino acids. An example is that Hy-Glu-Thr-His-NH2 becomes Hy-DHis-DThr-DGlu-NH2. The EC50 of these reference compounds for ferroportin internalization/degradation was determined according to the FPN activity assay described above. These peptides served as control standards.

Molecule | DC50 [nM]
CCCCCCCCCCCCCCCC(=O)NCCCCCC(=O)NCCCC[C@H](NC(=O)C[C@H](Cc1ccccc1)NC(=O)[C@@H](CCCCN)NC(=O)[C@@H](NC(=O)[C@H](C)NC(=O)[C@@H]1CCCN1C(=O)[C@@H](NC(=O)[C@H](Cc1c[nH]cn1)NC(=O)[C@@H](NC(=O)[C@H](CCC(=O)O)NC(=O)CC(C)C)[C@@H](C)O)C(c1ccccc1)c1ccccc1)[C@@H](C)CC)C(N)=O [compound 3] (Isovaleryl-ETH[Dip]PAI[dK][β3hF]K([Ahx-Palmitoyl])-NH2) | 24.9
CCCCCCCC(=O)NCCCCCC(=O)NCCCC[C@H](NC(=O)[C@@H](NC(=O)[C@H](C)NC(=O)[C@@H]1CCCN1C(=O)[C@@H](NC(=O)[C@H](Cc1c[nH]cn1)NC(=O)[C@@H](NC(=O)[C@H](CCC(=O)O)NC(=O)CC(C)C)[C@@H](C)O)C(c1ccccc1)c1ccccc1)[C@@H](C)CC)C(=O)N[C@H](CC(N)=O)Cc1ccccc1 [compound 103] (Isovaleryl-ETH[Dip]PAIK([Ahx-Octanoyl])[β3hF]-NH2) | 162
CCCCCCCCCCCCCCCC(=O)NCCCCCC(=O)NCCCC[C@H](NC(=O)[C@@H](NC(=O)[C@H](C)NC(=O)[C@@H]1CCCN1C(=O)[C@@H](NC(=O)[C@H](Cc1c[nH]cn1)NC(=O)[C@@H](NC(=O)[C@H](CCC(=O)O)NC(=O)CC(C)C)[C@@H](C)O)C(c1ccccc1)c1ccccc1)[C@@H](C)CC)C(=O)N[C@H](CC(N)=O)Cc1ccccc1 [SEQ ID No. 9, Isovaleric Acid-E-T-H-[Dpa]-P-A-I-[Lys(Ahx_Palm)]-[bhPhe]-NH2] (Isovaleryl-ETH[Dip]PAIK([Ahx-Palmitoyl])[β3hF]-NH2) | 31.9
CCCCCCCCCCCCCCCC(=O)NCCCCCC(=O)NCCCC[C@H](NC(=O)[C@@H](NC(=O)[C@H](C)NC(=O)[C@@H]1CCCN1C(=O)[C@@H](NC(=O)[C@H](Cc1c[nH]cn1)NC(=O)[C@@H](NC(=O)[C@H](CCC(=O)O)NC(=O)CC(C)C)[C@@H](C)O)C(c1ccccc1)c1ccccc1)[C@@H](C)CC)C(=O)NCc1ccccc1 [compound 52] (Isovaleryl-ETH[Dip]PAIK([Ahx-Palmitoyl])-NHBn) | 162
CCCCCCCCCCCCCCCC(=O)NCCCCCC(=O)NCCCC[C@H](NC(=O)[C@@H](NC(=O)[C@H](CC(C)C)NC(=O)[C@@H]1CCCN1C(=O)[C@@H](NC(=O)[C@H](Cc1c[nH]cn1)NC(=O)[C@@H](NC(=O)[C@H](CCC(=O)O)NC(=O)CC(C)C)[C@@H](C)O)C(c1ccccc1)c1ccccc1)[C@@H](C)CC)C(=O)N(C)[C@@H](CC(C)C)C(N)=O [compound 140] (Isovaleryl-ETH[Dip]PLIK([Ahx-Palmitoyl])[NMeL]-NH2) | 32.4
CCCCCCCCCCCCCCCC(=O)NCCC(=O)NCCC(=O)NCCCC[C@H](NC(=O)[C@@H](NC(=O)[C@H](C)NC(=O)[C@@H]1CCCN1C(=O)[C@@H](NC(=O)[C@H](Cc1c[nH]cn1)NC(=O)[C@@H](NC(=O)[C@H](CCC(=O)O)NC(=O)CC(C)C)[C@@H](C)O)C(c1ccccc1)c1ccccc1)[C@@H](C)CC)C(=O)N[C@H](CC(N)=O)Cc1ccccc1 [compound 99] (Isovaleryl-ETH[Dip]PAIK([βAla-βAla-Palmitoyl])[β3hF]-NH2) | 103

Same assay, conditions: ferroportin-GFP HEK293 cells, compound incubated at least 18 hours; read-out: FPN IC50

Molecule | DC50 [nM]
CC[C@H](C)[C@H](NC(=O)[C@H](C)NC(=O)[C@@H]1CCCN1C(=O)[C@@H](NC(=O)[C@H](Cc1c[nH]cn1)NC(=O)[C@@H](NC(=O)[C@H](CCCCNC(=O)COCCOCCNC(=O)COCCOCCNC(=O)CCCCCNC(=O)CCCCCCCCCCCCCCCCC(=O)O)NC(C)=O)[C@@H](C)O)C(c1ccccc1)c1ccccc1)C(=O)N[C@H](CCCCN)C(=O)N[C@H](CC(N)=O)Cc1ccccc1 [compound 234] (Ac-K([AEEA-AEEA-Ahx-C18 diacid])TH[Dip]PAI[dK][β3hF]-NH2) | > 3000
